Measured values published in US10005829B2, “Synthetic linear apelin mimetics for the treatment of heart failure” (priority 2012, dated 2018).
*1 amine or outer side, *2 acyl side, *3 side chain or, on linkers, in order; H or OH if unused. [ ]: non-standard residue; d: D form. Tyr(Bzl) = L-benzyl-tyrosine, O=C([C@H](Cc1ccc(OCc2ccccc2)cc1)N[*:1])[*:2]; Phe(3,4-Cl2) = N[C@@H](Cc1ccc(Cl)c(Cl)c1)C(=O)O; 2Nal = N[C@@H](Cc1ccc2ccccc2c1)C(=O)O; Cha = N[C@@H](CC1CCCCC1)C(=O)O; pGlu = O=C1CC[C@@H](C(=O)O)N1; dNle = CCCC[C@@H](N)C(=O)O; Nle = CCCC[C@H](N)C(=O)O; Aib = CC(C)(N)C(=O)O

T1: APJ receptor (human, UniProt P35414 1-380)
T1 sequence (looked up): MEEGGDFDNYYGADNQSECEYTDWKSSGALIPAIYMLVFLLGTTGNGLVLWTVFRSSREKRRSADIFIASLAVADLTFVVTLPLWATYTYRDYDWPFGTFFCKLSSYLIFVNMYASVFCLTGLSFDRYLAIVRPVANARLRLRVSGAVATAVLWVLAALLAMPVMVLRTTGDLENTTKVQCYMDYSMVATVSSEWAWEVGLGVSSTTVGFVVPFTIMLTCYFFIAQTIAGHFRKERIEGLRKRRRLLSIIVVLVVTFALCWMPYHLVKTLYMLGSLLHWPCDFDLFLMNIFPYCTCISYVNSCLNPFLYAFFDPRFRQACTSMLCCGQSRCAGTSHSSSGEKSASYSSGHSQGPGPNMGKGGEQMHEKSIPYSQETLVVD

B1: pE-R-P-R-L-S-Aib-K-G-P-nle-a-F-OH (peptide)
peptide: [pGlu]RPRLS[Aib]KGP[dNle][dA]F-OH
SMILES: CCCC[C@@H](NC(=O)[C@@H]1CCCN1C(=O)CNC(=O)[C@H](CCCCN)NC(=O)C(C)(C)NC(=O)[C@H](CO)NC(=O)[C@H](CC(C)C)NC(=O)[C@H](CCCNC(=N)N)NC(=O)[C@@H]1CCCN1C(=O)[C@H](CCCNC(=N)N)NC(=O)[C@@H]1CCC(=O)N1)C(=O)N[C@H](C)C(=O)N[C@@H](Cc1ccccc1)C(=O)O
B2: pE-R-P-R-Y-a-H-K-G-P-nle-a-f-OH (peptide)
peptide: [pGlu]RPRY[dA]HKGP[dNle][dA][dF]-OH
SMILES: CCCC[C@@H](NC(=O)[C@@H]1CCCN1C(=O)CNC(=O)[C@H](CCCCN)NC(=O)[C@H](Cc1c[nH]cn1)NC(=O)[C@@H](C)NC(=O)[C@H](Cc1ccc(O)cc1)NC(=O)[C@H](CCCNC(=N)N)NC(=O)[C@@H]1CCCN1C(=O)[C@H](CCCNC(=N)N)NC(=O)[C@@H]1CCC(=O)N1)C(=O)N[C@H](C)C(=O)N[C@H](Cc1ccccc1)C(=O)O
B3: pE-R-P-R-(D-Leu)-S-a-K-G-P-nle-a-f-OH (peptide)
peptide: [pGlu]RPR[dL]S[dA]KGP[dNle][dA][dF]-OH
SMILES: CCCC[C@@H](NC(=O)[C@@H]1CCCN1C(=O)CNC(=O)[C@H](CCCCN)NC(=O)[C@@H](C)NC(=O)[C@H](CO)NC(=O)[C@@H](CC(C)C)NC(=O)[C@H](CCCNC(=N)N)NC(=O)[C@@H]1CCCN1C(=O)[C@H](CCCNC(=N)N)NC(=O)[C@@H]1CCC(=O)N1)C(=O)N[C@H](C)C(=O)N[C@H](Cc1ccccc1)C(=O)O
B4: pE-R-P-R-(D-Leu)-S-Aib-K-G-P-nle-a-f-OH (peptide)
peptide: [pGlu]RPR[dL]S[Aib]KGP[dNle][dA][dF]-OH
SMILES: CCCC[C@@H](NC(=O)[C@@H]1CCCN1C(=O)CNC(=O)[C@H](CCCCN)NC(=O)C(C)(C)NC(=O)[C@H](CO)NC(=O)[C@@H](CC(C)C)NC(=O)[C@H](CCCNC(=N)N)NC(=O)[C@@H]1CCCN1C(=O)[C@H](CCCNC(=N)N)NC(=O)[C@@H]1CCC(=O)N1)C(=O)N[C@H](C)C(=O)N[C@H](Cc1ccccc1)C(=O)O
B5: pE-R-P-R-L-a-H-K-G-P-nle-a-d-OH (peptide)
peptide: [pGlu]RPRL[dA]HKGP[dNle][dA][dD]-OH
SMILES: CCCC[C@@H](NC(=O)[C@@H]1CCCN1C(=O)CNC(=O)[C@H](CCCCN)NC(=O)[C@H](Cc1c[nH]cn1)NC(=O)[C@@H](C)NC(=O)[C@H](CC(C)C)NC(=O)[C@H](CCCNC(=N)N)NC(=O)[C@@H]1CCCN1C(=O)[C@H](CCCNC(=N)N)NC(=O)[C@@H]1CCC(=O)N1)C(=O)N[C@H](C)C(=O)N[C@H](CC(=O)O)C(=O)O
B6: pE-R-P-R-L-a-H-K-G-P-nle-a-y-OH (peptide)
peptide: [pGlu]RPRL[dA]HKGP[dNle][dA][dY]-OH
SMILES: CCCC[C@@H](NC(=O)[C@@H]1CCCN1C(=O)CNC(=O)[C@H](CCCCN)NC(=O)[C@H](Cc1c[nH]cn1)NC(=O)[C@@H](C)NC(=O)[C@H](CC(C)C)NC(=O)[C@H](CCCNC(=N)N)NC(=O)[C@@H]1CCCN1C(=O)[C@H](CCCNC(=N)N)NC(=O)[C@@H]1CCC(=O)N1)C(=O)N[C@H](C)C(=O)N[C@H](Cc1ccc(O)cc1)C(=O)O
B7: pE-R-P-R-L-a-H-K-G-P-nle-r-f-OH (peptide)
peptide: [pGlu]RPRL[dA]HKGP[dNle][dR][dF]-OH
SMILES: CCCC[C@@H](NC(=O)[C@@H]1CCCN1C(=O)CNC(=O)[C@H](CCCCN)NC(=O)[C@H](Cc1c[nH]cn1)NC(=O)[C@@H](C)NC(=O)[C@H](CC(C)C)NC(=O)[C@H](CCCNC(=N)N)NC(=O)[C@@H]1CCCN1C(=O)[C@H](CCCNC(=N)N)NC(=O)[C@@H]1CCC(=O)N1)C(=O)N[C@H](CCCNC(=N)N)C(=O)N[C@H](Cc1ccccc1)C(=O)O
B8: pE-R-P-R-L-S-Aib-K-G-P-Nle-a-f-OH (peptide)
peptide: [pGlu]RPRLS[Aib]KGP[Nle][dA][dF]-OH
SMILES: CCCC[C@H](NC(=O)[C@@H]1CCCN1C(=O)CNC(=O)[C@H](CCCCN)NC(=O)C(C)(C)NC(=O)[C@H](CO)NC(=O)[C@H](CC(C)C)NC(=O)[C@H](CCCNC(=N)N)NC(=O)[C@@H]1CCCN1C(=O)[C@H](CCCNC(=N)N)NC(=O)[C@@H]1CCC(=O)N1)C(=O)N[C@H](C)C(=O)N[C@H](Cc1ccccc1)C(=O)O
B9: pE-R-P-R-Cha-a-H-K-G-P-nle-a-f-OH (peptide)
peptide: [pGlu]RPR[Cha][dA]HKGP[dNle][dA][dF]-OH
SMILES: CCCC[C@@H](NC(=O)[C@@H]1CCCN1C(=O)CNC(=O)[C@H](CCCCN)NC(=O)[C@H](Cc1c[nH]cn1)NC(=O)[C@@H](C)NC(=O)[C@H](CC1CCCCC1)NC(=O)[C@H](CCCNC(=N)N)NC(=O)[C@@H]1CCCN1C(=O)[C@H](CCCNC(=N)N)NC(=O)[C@@H]1CCC(=O)N1)C(=O)N[C@H](C)C(=O)N[C@H](Cc1ccccc1)C(=O)O
B10: pE-R-P-R-L-a-H-K-G-P-nle-e-f-OH (peptide)
peptide: [pGlu]RPRL[dA]HKGP[dNle][dE][dF]-OH
SMILES: CCCC[C@@H](NC(=O)[C@@H]1CCCN1C(=O)CNC(=O)[C@H](CCCCN)NC(=O)[C@H](Cc1c[nH]cn1)NC(=O)[C@@H](C)NC(=O)[C@H](CC(C)C)NC(=O)[C@H](CCCNC(=N)N)NC(=O)[C@@H]1CCCN1C(=O)[C@H](CCCNC(=N)N)NC(=O)[C@@H]1CCC(=O)N1)C(=O)N[C@H](CCC(=O)O)C(=O)N[C@H](Cc1ccccc1)C(=O)O
B11: pE-R-P-R-(3,4-Cl2-F)-a-H-K-G-P-nle-a-f-OH (peptide)
peptide: [pGlu]RPR[Phe(3,4-Cl2)][dA]HKGP[dNle][dA][dF]-OH
SMILES: CCCC[C@@H](NC(=O)[C@@H]1CCCN1C(=O)CNC(=O)[C@H](CCCCN)NC(=O)[C@H](Cc1c[nH]cn1)NC(=O)[C@@H](C)NC(=O)[C@H](Cc1ccc(Cl)c(Cl)c1)NC(=O)[C@H](CCCNC(=N)N)NC(=O)[C@@H]1CCCN1C(=O)[C@H](CCCNC(=N)N)NC(=O)[C@@H]1CCC(=O)N1)C(=O)N[C@H](C)C(=O)N[C@H](Cc1ccccc1)C(=O)O
B12: pE-R-P-R-L-a-F-K-G-P-nle-a-f-OH (peptide)
peptide: [pGlu]RPRL[dA]FKGP[dNle][dA][dF]-OH
SMILES: CCCC[C@@H](NC(=O)[C@@H]1CCCN1C(=O)CNC(=O)[C@H](CCCCN)NC(=O)[C@H](Cc1ccccc1)NC(=O)[C@@H](C)NC(=O)[C@H](CC(C)C)NC(=O)[C@H](CCCNC(=N)N)NC(=O)[C@@H]1CCCN1C(=O)[C@H](CCCNC(=N)N)NC(=O)[C@@H]1CCC(=O)N1)C(=O)N[C@H](C)C(=O)N[C@H](Cc1ccccc1)C(=O)O
B13: pE-R-P-R-L-a-H-K-G-P-nle-F-OH (peptide)
peptide: [pGlu]RPRL[dA]HKGP[dNle]F-OH
SMILES: CCCC[C@@H](NC(=O)[C@@H]1CCCN1C(=O)CNC(=O)[C@H](CCCCN)NC(=O)[C@H](Cc1c[nH]cn1)NC(=O)[C@@H](C)NC(=O)[C@H](CC(C)C)NC(=O)[C@H](CCCNC(=N)N)NC(=O)[C@@H]1CCCN1C(=O)[C@H](CCCNC(=N)N)NC(=O)[C@@H]1CCC(=O)N1)C(=O)N[C@@H](Cc1ccccc1)C(=O)O
B14: pE-R-P-R-(2-Nal)-a-H-K-G-P-nle-a-f-OH (peptide)
peptide: [pGlu]RPR[2Nal][dA]HKGP[dNle][dA][dF]-OH
SMILES: CCCC[C@@H](NC(=O)[C@@H]1CCCN1C(=O)CNC(=O)[C@H](CCCCN)NC(=O)[C@H](Cc1c[nH]cn1)NC(=O)[C@@H](C)NC(=O)[C@H](Cc1ccc2ccccc2c1)NC(=O)[C@H](CCCNC(=N)N)NC(=O)[C@@H]1CCCN1C(=O)[C@H](CCCNC(=N)N)NC(=O)[C@@H]1CCC(=O)N1)C(=O)N[C@H](C)C(=O)N[C@H](Cc1ccccc1)C(=O)O

Target: T1, APJ receptor
Test: cell-based or functional assay

Binder | hAPJ Ca^2+ Flux EC50
ERPRLAHKGPLF (pE at 1; D-Ala at 6; Nle (L-norleucine) at 11; D-Phe at 12) [pE-R-P-R-L-a-H-K-G-P-Nle-f-OH] | 10.7 nM
B1 | 3.9 nM
B2 | 114 nM
[pGlu]RPRL[dA]HKGP[Nle][dA][dF]-OH [pE-R-P-R-L-a-H-K-G-P-Nle-a-f-OH] | 2.4 nM
B3 | 386 nM
B4 | 5 nM
[pGlu]RPRL[dA]HKGP[Nle][dA]F-OH [pE-R-P-R-L-a-H-K-G-P-Nle-a-F-OH] | 4.5 nM
ERPRLAHKGPLPF (pE at 1; D-Ala at 6; Nle (L-norleucine) at 11; D-Phe at 13) [pE-R-P-R-L-a-H-K-G-P-Nle-P-f-OH] | 34.5 nM
B5 | 86.8 nM
[pGlu]RPRL[dA]HKGP[dNle][dA][dF]-NH2 [pE-R-P-R-L-a-H-K-G-P-nle-a-f-NH2] | 14.8 nM
B6 | 0.9 nM
[pGlu]RPRL[dA]H[dK]GP[Nle][dA][dF]-OH [pE-R-P-R-L-a-H-k-G-P-Nle-a-f-OH] | 99 nM
ERPRLAHKGPLA (pE at 1; D-Ala at 6; D-Nle at 11; D-Ala at 12; C-terminal NH(Phenethyl) amide) [pE-R-P-R-L-a-H-K-G-P-nle-a-NH(Phenethyl)] | 16.2 nM
B7 | 922 nM
B8 | 3.3 nM
B9 | 2.8 nM
B10 | 170 nM
ERPRLAHKGPLAX (pE at 1; D-Ala at 6; D-Nle at 11; D-Ala at 12; D-Tic at 13) [pE-R-P-R-L-a-H-K-G-P-nle-a-tic-OH] | 1.7 nM
[pGlu][dR]PRL[dA]HKGP[dNle][dA][dF]-OH [pE-r-P-R-L-a-H-K-G-P-nle-a-f-OH] | 796 nM
B11 | 13.8 nM
B12 | 3.1 nM
B13 | 66.5 nM
[pGlu]RPR[Tyr(Bzl)][dA]HKGP[dNle][dA][dF]-OH [pE-R-P-R-Y(Bzl)-a-H-K-G-P-nle-a-f-OH] | 121 nM
B14 | 69.2 nM
